From PMC11285730 (Open Biology, 2024)

Target: SARS-CoV-2 Wuhan RBD, de-glycosylated (SARS-CoV-2, UniProt P0DTC2)
Assay: crystal structure
Conditions: both partners purified

| Binder | binding result |
| --- | --- |
| A8 monomer (VHH) VHH: QVQLVESGGGLVQAGGSLRLSCAASGGTFSTAAMGWFRQAPGEERECVASIGWRGVRTWYADSVKGRFTISRDNPQNTVYLQMNNLKSGDTAVYYCAASVGNYGLPWAHFEYDFWGQGIQVTVSS | binds |
| B5-5 monomer (VHH) VHH: QVQLVESGGGLVQPGGSLRLSCAVFGSTLDNYSVGWFRQLPGKEREGLACFSRRYGAPYYADSAKDRFTISRDNAKNTVDLQLNGLKPEDTAVYYCATRSGPYCTTSVSDFDDWGRGTQVTVSS | binds |
